Measured values taken from article PMC11735773.

Biological target: SARS-CoV-2 nucleoprotein (NP) (SARS-CoV-2, UniProt P0DTC9 1-419)

B1: TAMRA-G12(S) (structured_RNA)
RNA: GGGGGGGGGGGG
modifications: phosphorothioate linkages
binding result: binds
